B1: RING1 and YY1-binding protein (Homo sapiens), Q8N488 (parent)
chain: MTMGDKKSPTRPKRQAKPAADEGFWDCSVCTFRNSAEAFKCSICDVRKGTSTRKPRINSQLVAQQVAQQYATPPPPKKEKKEKVEKQDKEKPEKDKEISPSVTKKNTNKKTKPKSDILKDPPSEANSIQSANATTKTSETNHTSRPRLKNVDRSTAQQLAVTVGNVTVIITDFKEKTRSSSTSSSTVTSSAGSEQQNQSSSGSESTDKGSSRSSTPKGDMSAVNDESF

Variants of: B1
Conditions: with ubc_human UBC

| Variant | effect of a mutation on the interaction |
| --- | --- |
| MTMGDKKSPTRPKRQAKPAADEGFWDCSVCAARNSAEAFKCSICDVRKGTSTRKPRINSQLVAQQVAQQYATPPPPKKEKKEKVEKQDKEKPEKDKEISPSVTKKNTNKKTKPKSDILKDPPSEANSIQSANATTKTSETNHTSRPRLKNVDRSTAQQLAVTVGNVTVIITDFKEKTRSSSTSSSTVTSSAGSEQQNQSSSGSESTDKGSSRSSTPKGDMSAVNDESF [T31A;F32A] | disrupting interaction |

Variants of: B1
Conditions: with ubc_human UBC
Remark: another data set of the same source

| Variant | effect of a mutation on the interaction |
| --- | --- |
| MTMGDKKSPTRPKRQAKPAADEGFWDCSVCAARNSAEAFKCSICDVRKGTSTRKPRINSQLVAQQVAQQYATPPPPKKEKKEKVEKQDKEKPEKDKEISPSVTKKNTNKKTKPKSDILKDPPSEANSIQSANATTKTSETNHTSRPRLKNVDRSTAQQLAVTVGNVTVIITDFKEKTRSSSTSSSTVTSSAGSEQQNQSSSGSESTDKGSSRSSTPKGDMSAVNDESF [T31A;F32A] | disrupting interaction |

Variants of: B1
Conditions: with RING1, Q06587-2
Chain of RING1, Q06587-2 (Q06587 30-406): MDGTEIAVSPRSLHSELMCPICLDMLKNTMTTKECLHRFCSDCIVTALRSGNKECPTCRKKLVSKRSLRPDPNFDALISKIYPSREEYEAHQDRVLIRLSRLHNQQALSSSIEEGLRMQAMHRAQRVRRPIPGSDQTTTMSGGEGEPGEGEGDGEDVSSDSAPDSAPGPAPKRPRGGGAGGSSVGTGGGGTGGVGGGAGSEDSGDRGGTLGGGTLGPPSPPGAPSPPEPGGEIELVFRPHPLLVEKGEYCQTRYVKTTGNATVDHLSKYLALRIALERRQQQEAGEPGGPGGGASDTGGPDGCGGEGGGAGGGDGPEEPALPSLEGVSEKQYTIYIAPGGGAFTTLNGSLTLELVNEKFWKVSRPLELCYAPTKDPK

| Variant | effect of a mutation on the interaction |
| --- | --- |
| MTMGDKKSPTRPKRQAKPAADEGFWDCSVCAARNSAEAFKCSICDVRKGTSTRKPRINSQLVAQQVAQQYATPPPPKKEKKEKVEKQDKEKPEKDKEISPSVTKKNTNKKTKPKSDILKDPPSEANSIQSANATTKTSETNHTSRPRLKNVDRSTAQQLAVTVGNVTVIITDFKEKTRSSSTSSSTVTSSAGSEQQNQSSSGSESTDKGSSRSSTPKGDMSAVNDESF [T31A;F32A] | disrupting interaction |

— IntAct's records for PubMed 17070805
